{
  "source": "paper PMC5201196",
  "target": "protein G´e (protein G prime e, extended)",
  "experiment": "MST",
  "data": [
    {"substance": "IgG (antibody)", "values": [
      {"measurement": "Kd", "result": 9.4, "unit": "nM"}
    ]}
  ]
}
